Experimental findings from PMC7430590 (bioRxiv, 2020) are described below.

For assay [1], the target named is Fc fusion protein of the RBD-SD1 region of SARS-CoV (SARS-CoV, strain not named, UniProt P59594). The assay is described as follows: ELISA.
In assay [2] the target is SARS-CoV-2 S protein-RBD-mFc (SARS-CoV-2, early reference sequence …, UniProt P0DTC2). The experiment in a line: SPR. Background: In SPR one partner is held on a chip, and binding of the other changes the refractive index at the surface.
The target of assay [3] is receptor binding domain (RBD; residues 319–541) of the SARS-CoV-2 spike (S) protein (SARS-CoV-2, UniProt P0DTC2). The assay is described as follows: crystal structure.

B1: CV38–142 (antibody, V domains shown)
VH: EVQLVQSGAEVKKPGESLKISCQGSGYSFTSYWIGWVRQMPGKGLEWMGIIYPGESDTRYSSSFQGHVTISADKSISTAYLQWSSLKASDTAMYYCARIRGVYSSGWIGGDYWGQGTLVTVSS
VL: not shown
As to B1, the binding result in assay [1] is “binds”.

B2: CV07–209 (antibody, V domains shown)
VH: QVQLVESGGGLVKPGGSLRLSCAASGFTFSDYYMSWIRQAPGKGLEWVSYISSSVSTIYYADSVKGRFTISRDNAKNSLYLQMNSLRAEDTAVYYCARDGVIPPRFDYWGQGTLVTVSS
VL: not shown
As to B2, the affinity in assay [2], expressed as Kd, was 6 pM.

B3: CV07–270 Fab (Fab, V domains shown)
VH: QVQLVESGGGLVKPGGSLRLSCAASGFTFSDYYMTWIRQAPGKGLEWVSYISSSGSTIYYADSVKGRFTISRDNAKNSLYLQMNSLRAEDTAVYYCARARGSSGWYRIGTRWGNWFDPWGQGTLVTVSS
VL: QSALTQPASVSGSPGQSITISCTGTSSDVGGYNYVSWYQQHPGKAPKLMIYEVSNRPSGVSNRFSGSKSGNTASLTISGLQAEDEADYYCSSYTSSSNVVFGGGTMLTVL
On to B3, for which the binding result in assay [3] was “binds”.
